Measurements published in patent US12679878B2, “CRF2 receptor agonists and their use in therapy” (SANOFI, priority 2020, dated 2026).
Starred links: 1 amine or outer side, 2 acyl side, 3 side chain; linkers in the order of their positions; H or OH if unused. Non-standard residues stand in square brackets, D forms with d. Groups on a side chain read outwards from the residue. No end group written: not given here. *: point of attachment. C18 diacid = O=C(O)CCCCCCCCCCCCCCCCC(=O)*; γGlu = O=C(O)[C@H](CCC(=O)[*:2])N[*:1]; Palmitoyl = CCCCCCCCCCCCCCCC(=O)*; AEEA = NCCOCCOCC(=O)O; Aib = CC(C)(N)C(=O)O

B1: SEQ ID NO: 110 (peptide)
peptide: IVLSLDVPIKLK([AEEA-AEEA-γGlu-C18 diacid])QILLKQERQK[Aib]QRQQAETNKQILAQV-NH2
modifications: N-terminus assumed
SMILES: CC[C@H](C)[C@H](N)C(=O)N[C@H](C(=O)N[C@@H](CC(C)C)C(=O)N[C@@H](CO)C(=O)N[C@@H](CC(C)C)C(=O)N[C@@H](CC(=O)O)C(=O)N[C@H](C(=O)N1CCC[C@H]1C(=O)N[C@H](C(=O)N[C@@H](CCCCN)C(=O)N[C@@H](CC(C)C)C(=O)N[C@@H](CCCCNC(=O)COCCOCCNC(=O)COCCOCCNC(=O)CC[C@H](NC(=O)CCCCCCCCCCCCCCCCC(=O)O)C(=O)O)C(=O)N[C@@H](CCC(N)=O)C(=O)N[C@H](C(=O)N[C@@H](CC(C)C)C(=O)N[C@@H](CC(C)C)C(=O)N[C@@H](CCCCN)C(=O)N[C@@H](CCC(N)=O)C(=O)N[C@@H](CCC(=O)O)C(=O)N[C@@H](CCCNC(=N)N)C(=O)N[C@@H](CCC(N)=O)C(=O)N[C@@H](CCCCN)C(=O)NC(C)(C)C(=O)N[C@@H](CCC(N)=O)C(=O)N[C@@H](CCCNC(=N)N)C(=O)N[C@@H](CCC(N)=O)C(=O)N[C@@H](CCC(N)=O)C(=O)N[C@@H](C)C(=O)N[C@@H](CCC(=O)O)C(=O)N[C@H](C(=O)N[C@@H](CC(N)=O)C(=O)N[C@@H](CCCCN)C(=O)N[C@@H](CCC(N)=O)C(=O)N[C@H](C(=O)N[C@@H](CC(C)C)C(=O)N[C@@H](C)C(=O)N[C@@H](CCC(N)=O)C(=O)N[C@H](C(N)=O)C(C)C)[C@@H](C)CC)[C@@H](C)O)[C@@H](C)CC)[C@@H](C)CC)C(C)C)C(C)C
B2: SEQ ID NO: 115 (peptide)
peptide: IVLSLDVPIKLK([AEEA-AEEA-γGlu-C18 diacid])QILLKQERQK[Aib]QREQAEKNKQILERV-NH2
modifications: N-terminus assumed
SMILES: CC[C@H](C)[C@H](N)C(=O)N[C@H](C(=O)N[C@@H](CC(C)C)C(=O)N[C@@H](CO)C(=O)N[C@@H](CC(C)C)C(=O)N[C@@H](CC(=O)O)C(=O)N[C@H](C(=O)N1CCC[C@H]1C(=O)N[C@H](C(=O)N[C@@H](CCCCN)C(=O)N[C@@H](CC(C)C)C(=O)N[C@@H](CCCCNC(=O)COCCOCCNC(=O)COCCOCCNC(=O)CC[C@H](NC(=O)CCCCCCCCCCCCCCCCC(=O)O)C(=O)O)C(=O)N[C@@H](CCC(N)=O)C(=O)N[C@H](C(=O)N[C@@H](CC(C)C)C(=O)N[C@@H](CC(C)C)C(=O)N[C@@H](CCCCN)C(=O)N[C@@H](CCC(N)=O)C(=O)N[C@@H](CCC(=O)O)C(=O)N[C@@H](CCCNC(=N)N)C(=O)N[C@@H](CCC(N)=O)C(=O)N[C@@H](CCCCN)C(=O)NC(C)(C)C(=O)N[C@@H](CCC(N)=O)C(=O)N[C@@H](CCCNC(=N)N)C(=O)N[C@@H](CCC(=O)O)C(=O)N[C@@H](CCC(N)=O)C(=O)N[C@@H](C)C(=O)N[C@@H](CCC(=O)O)C(=O)N[C@@H](CCCCN)C(=O)N[C@@H](CC(N)=O)C(=O)N[C@@H](CCCCN)C(=O)N[C@@H](CCC(N)=O)C(=O)N[C@H](C(=O)N[C@@H](CC(C)C)C(=O)N[C@@H](CCC(=O)O)C(=O)N[C@@H](CCCNC(=N)N)C(=O)N[C@H](C(N)=O)C(C)C)[C@@H](C)CC)[C@@H](C)CC)[C@@H](C)CC)C(C)C)C(C)C
B3: SEQ ID NO: 112 (peptide)
peptide: IVLSLDVPIKLK([AEEA-AEEA-γGlu-C18 diacid])QILLKQERQKKQREKAETNKQILAQV-NH2
modifications: N-terminus assumed
SMILES: CC[C@H](C)[C@H](N)C(=O)N[C@H](C(=O)N[C@@H](CC(C)C)C(=O)N[C@@H](CO)C(=O)N[C@@H](CC(C)C)C(=O)N[C@@H](CC(=O)O)C(=O)N[C@H](C(=O)N1CCC[C@H]1C(=O)N[C@H](C(=O)N[C@@H](CCCCN)C(=O)N[C@@H](CC(C)C)C(=O)N[C@@H](CCCCNC(=O)COCCOCCNC(=O)COCCOCCNC(=O)CC[C@H](NC(=O)CCCCCCCCCCCCCCCCC(=O)O)C(=O)O)C(=O)N[C@@H](CCC(N)=O)C(=O)N[C@H](C(=O)N[C@@H](CC(C)C)C(=O)N[C@@H](CC(C)C)C(=O)N[C@@H](CCCCN)C(=O)N[C@@H](CCC(N)=O)C(=O)N[C@@H](CCC(=O)O)C(=O)N[C@@H](CCCNC(=N)N)C(=O)N[C@@H](CCC(N)=O)C(=O)N[C@@H](CCCCN)C(=O)N[C@@H](CCCCN)C(=O)N[C@@H](CCC(N)=O)C(=O)N[C@@H](CCCNC(=N)N)C(=O)N[C@@H](CCC(=O)O)C(=O)N[C@@H](CCCCN)C(=O)N[C@@H](C)C(=O)N[C@@H](CCC(=O)O)C(=O)N[C@H](C(=O)N[C@@H](CC(N)=O)C(=O)N[C@@H](CCCCN)C(=O)N[C@@H](CCC(N)=O)C(=O)N[C@H](C(=O)N[C@@H](CC(C)C)C(=O)N[C@@H](C)C(=O)N[C@@H](CCC(N)=O)C(=O)N[C@H](C(N)=O)C(C)C)[C@@H](C)CC)[C@@H](C)O)[C@@H](C)CC)[C@@H](C)CC)C(C)C)C(C)C
B4: SEQ ID NO: 8 (peptide)
peptide: FTLSLDVPTKIK([γGlu-Palmitoyl])QKLLKQEKQKKQRQKAKTAAQILAQV-NH2
modifications: N-terminus assumed
SMILES: CCCCCCCCCCCCCCCC(=O)N[C@@H](CCC(=O)NCCCC[C@H](NC(=O)[C@@H](NC(=O)[C@H](CCCCN)NC(=O)[C@@H](NC(=O)[C@@H]1CCCN1C(=O)[C@@H](NC(=O)[C@H](CC(=O)O)NC(=O)[C@H](CC(C)C)NC(=O)[C@H](CO)NC(=O)[C@H](CC(C)C)NC(=O)[C@@H](NC(=O)[C@@H](N)Cc1ccccc1)[C@@H](C)O)C(C)C)[C@@H](C)O)[C@@H](C)CC)C(=O)N[C@@H](CCC(N)=O)C(=O)N[C@@H](CCCCN)C(=O)N[C@@H](CC(C)C)C(=O)N[C@@H](CC(C)C)C(=O)N[C@@H](CCCCN)C(=O)N[C@@H](CCC(N)=O)C(=O)N[C@@H](CCC(=O)O)C(=O)N[C@@H](CCCCN)C(=O)N[C@@H](CCC(N)=O)C(=O)N[C@@H](CCCCN)C(=O)N[C@@H](CCCCN)C(=O)N[C@@H](CCC(N)=O)C(=O)N[C@@H](CCCNC(=N)N)C(=O)N[C@@H](CCC(N)=O)C(=O)N[C@@H](CCCCN)C(=O)N[C@@H](C)C(=O)N[C@@H](CCCCN)C(=O)N[C@H](C(=O)N[C@@H](C)C(=O)N[C@@H](C)C(=O)N[C@@H](CCC(N)=O)C(=O)N[C@H](C(=O)N[C@@H](CC(C)C)C(=O)N[C@@H](C)C(=O)N[C@@H](CCC(N)=O)C(=O)N[C@H](C(N)=O)C(C)C)[C@@H](C)CC)[C@@H](C)O)C(=O)O

The binders below were run against human corticotropin-releasing factor 2α (CRF2 α receptor) (human), Q13324 (assay: cell-based or functional assay).
human corticotropin-releasing factor 2α (CRF2 α receptor) (human), Q13324, sequence (Q13324 20-411): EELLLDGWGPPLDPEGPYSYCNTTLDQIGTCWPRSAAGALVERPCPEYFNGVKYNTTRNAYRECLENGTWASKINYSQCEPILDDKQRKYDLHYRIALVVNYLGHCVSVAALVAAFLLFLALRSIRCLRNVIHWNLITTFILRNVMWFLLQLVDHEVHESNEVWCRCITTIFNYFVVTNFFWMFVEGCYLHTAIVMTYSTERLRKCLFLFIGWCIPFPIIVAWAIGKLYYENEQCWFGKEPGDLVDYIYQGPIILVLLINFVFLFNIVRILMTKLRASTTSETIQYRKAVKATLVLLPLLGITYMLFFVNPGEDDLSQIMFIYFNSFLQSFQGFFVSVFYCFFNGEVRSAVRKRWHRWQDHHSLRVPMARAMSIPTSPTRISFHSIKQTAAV

EC50 [nM], 0% HSA [nM]	EC50 [nM], 0.1% HSA [nM]	Binder
0.1	11.9	IVLSLDVPIKLK([AEEA-AEEA-γGlu-C18 diacid])QILLKQERQKKQRQQAETNKQILAQV-NH2 [SEQ ID NO: 113]
0.18	–	B1
2.77	–	B2
0.16	12.4	IVLSLDVPIKLK([AEEA-AEEA-γGlu-C18 diacid])QILLEQARQK[Aib]QRAQAETNKRILERV-NH2 [SEQ ID NO: 114]
0.66	68.9	B3
0.2	–	B4
